According to doi:10.1101/2024.02.06.578578:

Biological target: SkSGLc, SkSGL from Sanguibacter keddieii (KEGG locus tag, Sked_30460) with a C-terminal His6-tag (Sanguibacter keddieii)
Assay: SEC

## SkSGLc, SkSGL from Sanguibacter keddieii (KEGG locus tag, Sked_30460) with a C-terminal His6-tag (enzyme)
  stoichiometry N: 2
